Measured values published in paper PMC7617672, “Oryza genera-specific novel Histone H4 variant predisposes H4 Lysine5 Acetylation marks to modulate salt stress responses”.

Tests used:
[1] = target: rice histone H2A;rice histone H2B;rice histone H3;rice histone H4 (Oryza sativa;Oryza sativa;Oryza …, UniProt A2YMC6;A2WKP5;A2Y533;B7F4Q1 ;;;1-103, |||); assay: EMSA (nucleosome reconstitution, native PAGE); NCP gel: native 6% acrylamide, 0.5x TBE; peptide pull-down: 10 mM Tris pH 8.0, 50 mM NaCl, 5 mM MgCl2, 4 C, 6 h; cryo-EM: 10 mM Tris pH 8.0, 50 mM NaCl, 1 mM EDTA; settings: protein: recombinant;recombinant;recombinant;recombinant; tags: none;none;none;N-terminal MGS extension from vector; chain copies: 2;2;2;2; blunt
[2] = target: rice histone H2A;rice histone H2B;rice histone H3;H4.VS (H4.V N-terminal 53 aa fused to H4 C-terminal 50 aa) (Oryza sativa;Oryza sativa;Oryza …, UniProt A2YMC6;A2WKP5;A2Y533;PDB:8Q16_4 ;;;, |||); assay: EMSA (nucleosome reconstitution, native PAGE); mobility shift similar to H4 NCP; NCP gel: native 6% acrylamide, 0.5x TBE; peptide pull-down: 10 mM Tris pH 8.0, 50 mM NaCl, 5 mM MgCl2, 4 C, 6 h; cryo-EM: 10 mM Tris pH 8.0, 50 mM NaCl, 1 mM EDTA; settings: protein: recombinant;recombinant;recombinant;recombinant; tags: none;none;none;none; chain copies: 2;2;2;2; blunt

B1: Widom 601 NPS (147 bp as stated; 146 nt printed) (dsDNA)
DNA 1: CTGGAGAATCCCGGTGCCGAGGCCGCTCAATTGGTCGTAGACAGCTCTAGCACCGCTTAAACGCACGTACGCGCTGTCCCCCGCGTTTTAACCGCCAAGGGGATTACTCCCTAGTCTCCAGGCACGTGTCACATATATACATCCTG
DNA 2: CAGGATGTATATATGTGACACGTGCCTGGAGACTAGGGAGTAATCCCCTTGGCGGTTAAAACGCGGGGGACAGCGCGTACGTGCGTTTAAGCGGTGCTAGAGCTGTCTACGACCAATTGAGCGGCCTCGGCACCGGGATTCTCCAG
B1: binds [1]; binds [2].
